In the supplement of paper PMC10567573:

B1: ZNF449 (parent)
chain: EPHKCPECGKRFLRSSDLYRHQRL

Variants of: B1
Assay: protein stability index of a GFP-peptide fusion (GPS, HEK-293T) (PSI 1-6); higher = more stable
Conditions: c terminus: a fixed tail appended
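Further: lentivirally expressed fusions sorted by FACS into six bins by GFP to DsRed ratio, PSI derived from sequencing read proportions per bin multiplied by bin number.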

Protein stability index of substitutions, site by site:
K10: W 2.13 | S 3.21 | R 3.55 | V 3.31 | L 3.65 | E 3.63 | G 2.11 | D 2.44
G9: L 2.3 | D 2.99 | C 2.18 | S 3.36 | R 2.31 | F 2.52 | M 2.72 | Y 2.8
C8: A 3.24 | P 3.51 | V 3.25 | G 3.3 | K 3.75 | S 3.37
H21: Y 2.1 | R 2.07 | T 2.34 | S 2 | C 2.15 | I 1.64
P2: G 3.81 | H 3.95 | I 3.18 | W 3.22 | K 3.57 | D 4 | E 3.42
H3: I 4.1 | E 2.99 | W 4 | P 3.33 | N 4.49 | A 3.25 | M 3.79
S15: P 3.25 | A 4.16 | W 3.52
E7: C 4.37 | F 3.25 | D 4.12 | I 3.3 | G 3.74
S16: W 2.66 | M 3.4 | Y 3.05 | L 2.72 | C 3.62 | P 2.99 | G 3.54
Y19: A 4.05 | E 4.63 | C 4.7
R20: N 4.21 | L 3.55 | Y 3.32 | T 4.01 | E 4.63 | G 3.21 | W 3.6
L13: H 3.85 | C 4.05 | F 3.35 | W 3.55 | K 4.5 | A 4 | G 3.88 | N 4.08 | R 3.99 | S 3.92 | Y 4.09 | Q 4.66
L18: S 3.15 | K 2.74 | P 2.37 | F 3.44 | M 3.46 | Q 2.46 | R 3.3 | H 3.5 | G 3.05 | A 3.08
R14: E 3.84 | A 3.89 | C 3.86 | Y 3.59 | H 3.97 | G 2.33 | I 2.95 | S 4.61 | F 3.76 | N 4.78 | T 4.61 | P 2.2
E1: W 3.2 | F 2.93 | Q 3.12 | K 2.79 | V 2.67 | R 3.37
C5: S 3.44 | A 3.69 | F 2.5 | N 3.41 | H 3.19 | I 3.26
L24: A 3.83 | V 3.82 | E 4.95 | T 4.06
P6: I 3.23 | C 3.75 | A 3.75 | W 3.31 | T 3.52 | M 3.88
Q22: C 3.97 | M 3.83 | F 3.14 | S 3.16 | E 3.92 | V 3.76 | H 3.27 | W 2.78 | D 2.39 | N 3.36 | R 3.84
D17: G 2.58 | M 2.35 | V 1.69 | T 2.36 | C 2.66
R11: G 4 | H 4.07 | P 3.68 | V 4.57 | Q 4.44 | K 4.16 | E 4.84
R23: N 4.4 | E 4.47 | D 4.32 | Y 3.75 | I 3.01 | Q 4.43
F12: I 2.1 | V 1.95 | Q 2.03 | C 1.67 | T 2.32
K4: V 4.7 | W 3.65 | E 4.73 | M 4.7 | N 4.09 | Q 4.57 | Y 4.47 | F 3.98 | H 4.09 | S 4.13
